Columns and labels:
[1] = tested on: HeLa Kyoto; test: solubility change mitosis vs G1/S (difference of NP-40 vs SDS log2 ratios) (log2 ratio difference); higher = more soluble in mitosis
[2] = tested on: HeLa Kyoto; test: thermal stability score vs G1/S (z-score of summed log2 fold changes over temperatures); higher = more thermally stable than in G1/S
[3] = tested on: HeLa Kyoto; test: solubility in G1/S (NP-40 vs SDS abundance) (log2 ratio); higher = more soluble; conditions: cell cycle stage: G1/S
[4] = tested on: HeLa Kyoto; test: melting temperature (median over replicates), in situ; higher = more thermally stable
[5] = cell cycle stage: early G1 (4.5 h after nocodazole release)
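Wherever melting temperature (median over replicates), in situ is given: HeLa Kyoto cells synchronized by double thymidine or nocodazole block, proteins quantified by TMT10plex mass spectrometry, three independent biological replicates.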
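Wherever solubility change mitosis vs G1/S (difference of NP-40 vs SDS log2 ratios) is given: synchronized HeLa Kyoto cells (double thymidine block for G1/S, nocodazole release for mitosis), protein amounts in NP-40 versus SDS lysates quantified by mass spectrometry, three biological replicates.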
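Wherever solubility in G1/S (NP-40 vs SDS abundance) is given: HeLa Kyoto cells arrested at G1/S by double thymidine block, proteins quantified by TMT10plex mass spectrometry in mild NP-40 versus SDS extracts, three biological replicates.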
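Wherever thermal stability score vs G1/S (z-score of summed log2 fold changes over temperatures) is given: synchronized HeLa Kyoto cells, proteins quantified by TMT10plex mass spectrometry, three biological replicates, mitosis taken 0.5 h after nocodazole release, G1/S directly after double thymidine block.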

| Substance | solubility change mitosis (log2) [1] | thermal stability score [2, 5] | thermal stability score ([2]; cell cycle stage: mitosis) | solubility in G1/S (log2) [3] | melting temperature ([4]; cell cycle stage: G1/S) | melting temperature ([4]; cell cycle stage: mitosis) |
| --- | --- | --- | --- | --- | --- | --- |
| MDNYADLSDTELTTLLRRYNIPHGPVVGSTRRLYEKKIFEYETQRRRLSPPSSSAASSYSFSDLNSTRGDADMYDLPKKEDALLYQSKGYNDDYYEESYFTTRTYGEPESAGPSRAVRQSVTSFPDADAFHHQVHDDDLLSSSEEECKDRERPMYGRDSAYQSITHYRPVSASRSSLDLSYYPTSSSTSFMSSSSSSSSWLTRRAIRPENRAPGAGLGQDRQVPLWGQLLLFLVFVIVLFFIYHFMQAEEGNPF [EMD] | 0.383 | -0.609 | -0.468 | -0.273 | 52.4 °C | 51.7 °C |
| RAPGEF2 | -0.144 | -0.581 | -1.21 | -0.143 | 50.8 °C |  |
| MRCLAARVNYKTLIIICALFTLVTVLLWNKCSSDKAIQFPRRSSSGFRVDGFEKRAAASESNNYMNHVAKQQSEEAFPQEQQKAPPVVGGFNSNVGSKVLGLKYEEIDCLINDEHTIKGRREGNEVFLPFTWVEKYFDVYGKVVQYDGYDRFEFSHSYSKVYAQRAPYHPDGVFMSFEGYNVEVRDRVKCISGVEGVPLSTQWGPQGYFYPIQIAQYGLSHYSKNLTEKPPHIEVYETAEDRDKNKPNDWTVPKGCFMANVADKSRFTNVKQFIAPETSEGVSLQLGNTKDFIISFDLKFLTNGSVSVVLETTEKNQLFTIHYVSNAQLIAFKERDIYYGIGPRTSWSTVTRDLVTDLRKGVGLSNTKAVKPTKIMPKKVVRLIAKGKGFLDNITISTTAHMAAFFAASDWLVRNQDEKGGWPIMVTRKLGEGFKSLEPGWYSAMAQGQAISTLVRAYLLTKDHIFLNSALRATAPYKFLSEQHGVKAVFMNKHDWYEEYPTTPSSFVLNGFMYSLIGLYDLKETAGEKLGKEARSLYERGMESLKAMLPLYDTGSGTIYDLRHFMLGIAPNLARWDYHTTHINQLQLLSTIDESPVFKEFVKRWKSYLKGSRAKHN [GLCE] | -0.162 | -0.914 | -0.99 | -0.0659 | 53.9 °C | 53.9 °C |
| MSLLRSLRVFLVARTGSYPAGSLLRQSPQPRHTFYAGPRLSASASSKELLMKLRRKTGYSFVNCKKALETCGGDLKQAEIWLHKEAQKEGWSKAAKLQGRKTKEGLIGLLQEGNTTVLVEVNCETDFVSRNLKFQLLVQQVALGTMMHCQTLKDQPSAYSKGFLNSSELSGLPAGPDREGSLKDQLALAIGKLGENMILKRAAWVKVPSGFYVGSYVHGAMQSPSLHKLVLGKYGALVICETSEQKTNLEDVGRRLGQHVVGMAPLSVGSLDDEPGGEAETKMLSQPYLLDPSITLGQYVQPQGVSVVDFVRFECGEGEEAAETE [TSFM] | -0.0285 | -0.0634 | 3.2 | 0.283 | 47.6 °C | 48.9 °C |
| MSALLRLLRTGAPAAACLRLGTSAGTGSRRAMALYHTEERGQPCSQNYRLFFKNVTGHYISPFHDIPLKVNSKEENGIPMKKARNDEYENLFNMIVEIPRWTNAKMEIATKEPMNPIKQYVKDGKLRYVANIFPYKGYIWNYGTLPQTWEDPHEKDKSTNCFGDNDPIDVCEIGSKILSCGEVIHVKILGILALIDEGETDWKLIAINANDPEASKFHDIDDVKKFKPGYLEATLNWFRLYKVPDGKPENQFAFNGEFKNKAFALEVIKSTHQCWKALLMKKCNGGAINCTNVQISDSPFRCTQEEARSLVESVSSSPNKESNEEEQVWHFLGK [PPA2] | 0.0395 | -1.33 | -2 | 0.442 | 54.8 °C | 55.1 °C |
| MEVTGVSAPTVTVFISSSLNTFRSEKRYSRSLTIAEFKCKLELLVGSPASCMELELYGVDDKFYSKLDQEDALLGSYPVDDGCRIHVIDHSGARLGEYEDVSRVEKYTISQEAYDQRQDTVRSFLKRSKLGRYNEEERAQQEAEAAQRLAEEKAQASSIPVGSRCEVRAAGQSPRRGTVMYVGLTDFKPGYWIGVRYDEPLGKNDGSVNGKRYFECQAKYGAFVKPAVVTVGDFPEEDYGLDEI [TBCB] | 0.119 | -0.00262 | 0.00665 | 0.266 | 49.5 °C | 50.2 °C |
| SAR1B | -0.182 | 0.15 | 0.55 | -0.00727 | 52.3 °C | 53.4 °C |
| MKGMSHEPKSPSLGMLSTATRTTATVNPLTPSPLNGALVPSGSPATSSALSAQAAPSSSFAAALRKLAKQAEEPRGSSLSSESSPVSSPATNHSSPASTPKRVPMGPIIVPPGGHSVPSTPPVVTIAPTKTVNGVWRSESRQDAGSRSSSGGRERLIVEPPLPQEKAGGPAIPSHLLSTPYPFGLSPSSVVQDSRFPPLNLQRPVHHVVPPSTVTEDYLRSFRPYHTTDDLRMSSLPPLGLDPATAAAYYHPSYLAPHPFPHPAFRMDDSYCLSALRSPFYPIPTPGSLPPLHPSAMHLHLSGVRYPPELSHSSLAALHSERMSGLSAERLQMDEELRREREREREREREREADREREKEREREREKEREQEKEREREKERERELERQREQRAREKELLAAKALEPSFLPVAELHGLRGHATEERGKPSEQLTPTRAEKLKDAGLQAPKPVQHPLHPVPTPHHTVPSLISNHGIFSLPSSSAATALLIQRTNEEEKWLARQRRLRQEKEDRQSQVSEFRQQVLEQHLDMGRPPVPAEAEHRPESTTRPGPNRHEPGGRDPPQHFGGPPPLISPKPQLHAAPTALWNPVSLMDNTLETRRAESHSLHSHPAAFEPSRQAAVPLVKVERVFCPEKAEEGPRKREPAPLDKYQPPPPPPREGGSLEHQPFLPGPGPFLAELEKSTQTILGQQRASLPQAATFGELSGPLKPGSPYRPPVPRAPDPAYIYDEFLQQRRRLVSKLDLEERRRREAQEKGYYYDLDDSYDESDEEEVRAHLRCVAEQPPLKLDTSSEKLEFLQLFGLTTQQQKEELVAQKRRKRRRMLRERSPSPPTIQSKRQTPSPRLALSTRYSPDEMNNSPNFEEKKKFLTIFNLTHISAEKRKDKERLVEMLRAMKQKALSAAVADSLTNSPRDSPAVSLSEPATQQASLDVEKPVGVAASLSDIPKAAEPGKLEQVRPQELSRVQELAPASGEKARLSEAPGGKKSLSMLHYIRGAAPKDIPVPLSHSTNGKSKPWEPFVAEEFAHQFHESVLQSTQKALQKHKGSVAVLSAEQNHKVDTSVHYNIPELQSSSRAPPPQHNGQQEPPTARKGPPTQELDRDSEEEEEEDDEDGEDEEEVPKRKWQGIEAVFEAYQEHIEEQNLERQVLQTQCRRLEARHYSLSLTAEQLSHSVAELRSQKQKMVSERERLQAELDHLRKCLALPAMHWPRGYLKGYPR [GSE1] | 0.0661 | -0.121 | 0.454 | 0.0704 | 50.8 °C | 49.9 °C |
| PNKP | -0.0487 | 0.324 | 1.25 | 0.193 | 48.6 °C | 49.3 °C |
| MKIFCSRANPTTGSVEWLEEDEHYDYHQEIARSSYADMLHDKDRNVKYYQGIRAAVSRVKDRGQKALVLDIGTGTGLLSMMAVTAGADFCYAIEVFKPMADAAVKIVEKNGFSDKIKVINKHSTEVTVGPEGDMPCRANILVTELFDTELIGEGALPSYEHAHRHLVEENCEAVPHRATVYAQLVESGRMWSWNKLFPIHVQTSLGEQVIVPPVDVESCPGAPSVCDIQLNQVSPADFTVLSDVLPMFSIDFSKQVSSSAACHSRRFEPLTSGRAQVVLSWWDIEMDPEGKIKCTMAPFWAHSDPEEMQWRDHWMQCVYFLPQEEPVVQGSALYLVAHHDDYCVWYSLQRTSPEKNERVRQMRPVCDCQAHLLWNRPRFGEINDQDRTDRYVQALRTVLKPDSVCLCVSDGSLLSVLAHHLGVEQVFTVESSAASHKLLRKIFKANHLEDKINIIEKRPELLTNEDLQGRKVSLLLGEPFFTTSLLPWHNLYFWYVRTAVDQHLGPGAMVMPQAASLHAVVVEFRDLWRIRSPCGDCEGFDVHIMDDMIKRALDFRESREAEPHPLWEYPCRSLSEPWQILTFDFQQPVPLQPLCAEGTVELRRPGQSHAAVLWMEYHLTPECTLSTGLLEPADPEGGCCWNPHCKQAVYFFSPAPDPRALLGGPRTVSYAVEFHPDTGDIIMEFRHADTPD [PRMT7] | -0.0142 | 0.131 | 1.01 | -0.014 | 49.5 °C | 51 °C |
| VLDLR | -0.0963 | -2.48 | -3.74 | -0.0421 | 56.4 °C | 55.4 °C |
| MAPQVWRRRTLERCLTEVGKATGRPECFLTIQEGLASKFTSLTKVLYDFNKILENGRIHGSPLQKLVIENFDDEQIWQQLELQNEPILQYFQNAVSETINDEDISLLPESEEQEREEDGSEIEADDKEDLEDLEEEEVSDMGNDDPEMGERAENSSKSDLRKSPVFSDEDSDLDFDISKLEQQSKVQNKGQGKPREKSIVDDKFFKLSEMEAYLENIEKEEERKDDNDEEEEDIDFFEDIDSDEDEGGLFGSKKLKSGKSSRNLKYKDFFDPVESDEDITNVHDDELDSNKEDDEIAEEEAEELSISETDEDDDLQENEDNKQHKESLKRVTFALPDDAETEDTGVLNVKKNSDEVKSSFEKRQEKMNEKIASLEKELLEKKPWQLQGEVTAQKRPENSLLEETLHFDHAVRMAPVITEETTLQLEDIIKQRIRDQAWDDVVRKEKPKEDAYEYKKRLTLDHEKSKLSLAEIYEQEYIKLNQQKTAEEENPEHVEIQKMMDSLFLKLDALSNFHFIPKPPVPEIKVVSNLPAITMEEVAPVSVSDAALLAPEEIKEKNKAGDIKTAAEKTATDKKRERRKKKYQKRMKIKEKEKRRKLLEKSSVDQAGKYSKTVASEKLKQLTKTGKASFIKDEGKDKALKSSQAFFSKLQDQVKMQINDAKKTEKKKKKRQDISVHKLKL [MPHOSPH10] | 1.06 | 3.5 | 1.06 | -2.07 | 52.4 °C | 52.4 °C |
| MAENKGGGEAESGGGGSGSAPVTAGAAGPAAQEAEPPLTAVLVEEEEEEGGRAGAEGGAAGPDDGGVAAASSGSAQAASSPAASVGTGVAGGAVSTPAPAPASAPAPGPSAGPPPGPPASLLDTCAVCQQSLQSRREAEPKLLPCLHSFCLRCLPEPERQLSVPIPGGSNGDIQQVGVIRCPVCRQECRQIDLVDNYFVKDTSEAPSSSDEKSEQVCTSCEDNASAVGFCVECGEWLCKTCIEAHQRVKFTKDHLIRKKEDVSESVGASGQRPVFCPVHKQEQLKLFCETCDRLTCRDCQLLEHKEHRYQFLEEAFQNQKGAIENLLAKLLEKKNYVHFAATQVQNRIKEVNETNKRVEQEIKVAIFTLINEINKKGKSLLQQLENVTKERQMKLLQQQNDITGLSRQVKHVMNFTNWAIASGSSTALLYSKRLITFQLRHILKARCDPVPAANGAIRFHCDPTFWAKNVVNLGNLVIESKPAPGYTPNVVVGQVPPGTNHISKTPGQINLAQLRLQHMQQQVYAQKHQQLQQMRMQQPPAPVPTTTTTTQQHPRQAAPQMLQQQPPRLISVQTMQRGNMNCGAFQAHQMRLAQNAARIPGIPRHSGPQYSMMQPHLQRQHSNPGHAGPFPVVSVHNTTINPTSPTTATMANANRGPTSPSVTAIELIPSVTNPENLPSLPDIPPIQLEDAGSSSLDNLLSRYISGSHLPPQPTSTMNPSPGPSALSPGSSGLSNSHTPVRPPSTSSTGSRGSCGSSGRTAEKTSLSFKSDQVKVKQEPGTEDEICSFSGGVKQEKTEDGRRSACMLSSPESSLTPPLSTNLHLESELDALASLENHVKIEPADMNESCKQSGLSSLVNGKSPIRSLMHRSARIGGDGNNKDDDPNEDWCAVCQNGGDLLCCEKCPKVFHLTCHVPTLLSFPSGDWICTFCRDIGKPEVEYDCDNLQHSKKGKTAQGLSPVDQRKCERLLLYLYCHELSIEFQEPVPASIPNYYKIIKKPMDLSTVKKKLQKKHSQHYQIPDDFVADVRLIFKNCERFNEMMKVVQVYADTQEINLKADSEVAQAGKAVALYFEDKLTEIYSDRTFAPLPEFEQEEDDGEVTEDSDEDFIQPRRKRLKSDERPVHIK [TRIM33] | -0.201 | 2.02 | 4.15 | 0.105 | 48.1 °C | 49.7 °C |
